B1: full-length GTP-bound Rab6a/Q72L with N-terminal GST tag [human] / BicD2-CTD (C-terminal cargo-binding domain of human Bicaudal D2, residues 715-804) [human] (parent)
chain 1: YENEKAMVTETMMKLRNELKALKEDAATFSSLRAMFATRCDEYITQLDEMQRQLAAAEDEKKTLNSLLRMAIQQKLALTQRLELLELDHE
chain 2: MSTGGDFGNPLRKFKLVFLGEQSVGKTSLITRFMYDSFDNTYQATIGIDFLSKTMYLEDRTVRLQLWDTAGLERFRSLIPSYIRDSTVAVVVYDITNVNSFQQTTKWIDDVRTERGSDVIIMLVGNKTDLADKRQVSIEEGERKAKELNVMFIETSAKAGYNVKQLFRRVAAALPGMESTQDRSREDMIDIKLEKPQEQPVSEGGCSC

Variants of: B1
Assay: GST pull-down, SDS-PAGE band quantification
Settings: with BicD2-CTD (C-terminal cargo-binding domain of human Bicaudal D2, residues 715-804) [human]; parent: 1; read off a plot
chain 2 F38A showed a ratio to parent of 0.01. Work on chain 2 T69A yielded a ratio to parent of 0.07. For chain 2 T45A, the ratio to parent was 0.01. chain 2 W67A was tested, and the ratio to parent was 0.09. With chain 2 Q22A the ratio to parent was 0.97. Variant chain 2 S23A has a ratio to parent of 0.96.

Source: paper PMC11077774
